In patent US20100111970A1 (published 2010):

How the values were obtained:
[1] = molecular target: T1, human nerve growth factor (NGF) (human, UniProt P01138 122-241); experiment: BIAcore SPR; KD calculated from koff using kon 4e4 M^-1s^-1
T1 construct: Immobilized on CM5 chip in BIAcore assays; also called human NGF; hNGF
Protocol: (§1) Affinities of anti-NGF Fabs and monoclonal antibodies were determined using the BIAcore3000™ surface plasmon resonance (SPR) system (BIAcore, INC, Piscaway N.J.). CM5 chips were activated with N-ethyl-N′-(3-dimethylaminopropyl)-carbodiinide hydrochloride (EDC) and N-hydroxysuccinimide (NHS) according to the supplier's instructions. Human NGF was diluted into 10 mM sodium acetate pH 4.0 and injected over the activated chip at a concentration of 0.005 mg/mL. Using variable flow time across the individual chip channels, two ranges of antigen density were achieved: 100-200 response units (RU) for detailed kinetic studies and 500-600 RU for screening assays. The chip was blocked with ethanolamine. […] HBS-EP buffer (0.01M HEPES, pH 7.4, 0.15 NaCl, 3 mM EDTA, 0.005% Surfactant […]) was used as running buffer for all the BIAcore assays.
(§2) For affinity screening experiments, each library was further paired with the corresponding CDR-grafted light or heavy chain (for example, the H1/H2 library was paired with CDR-grafted light chain), the antibody was expressed, and affinity to human NGF of the individual clones was screened using the BIACORE surface plasmon resonance (SPR) system (BIAcore, Inc. Piscataway, N.J.) according to the manufacturer's instructions and as described above. koff, kₒₙ and KD were determined. […]

[2] = molecular target: T1, human nerve growth factor (NGF); experiment: BIAcore SPR screening of Fab clones on immobilized human NGF
Protocol: as §1, §2

T1 sequence (P01138 122-241 limits assumed): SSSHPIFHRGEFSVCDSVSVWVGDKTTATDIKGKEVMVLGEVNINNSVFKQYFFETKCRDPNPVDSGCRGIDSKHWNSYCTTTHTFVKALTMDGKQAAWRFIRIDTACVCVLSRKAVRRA

Kd [1]: 18 nM
koff [2]: 0.00074 s⁻¹
B1: light chain library clone L81 (Fab, V domains shown)
VH: QVQLQESGPGLVKPSETLSLTCTVSGFSLIGYDINWIRQPPGKGLEWIGMIWGDGTTDYNSALKSRVTISKDTSKNQFSLKLSSVTAADTAVYYCARGGYYYGTSYYFDYWGQGTLVTVS
VL: DIQMTQSPSSLSASVGDRVTITCRAFQAISNQLNWYQQKPGKAPKLLIYYTSRFHTGVPSRFSGSGSGTDFTFTISSLQPEDIATYYCQQSKTLPYTFGQGTKLEIKR
notes: Substitutions derived by comparing printed CDRs with the 8L2-6D5 control
